Measured values published in the Immune Epitope Database (IEDB).

Key:
HLA-A*03:01 = test: IEDB peptide-MHC binding, purified MHC/competitive/fluorescence; filed as Kd, often an IC50 or EC50 that approximates it; ≥ and ≤ were set here for values at or beyond the usual limits of such assays
HLA-B*51:01 [1] = test: as above; conditions: source organism: West Nile virus
HLA-B*07:02 = test: IEDB peptide-MHC binding, purified MHC/competitive/radioactivity; filed as Kd, often an IC50 or EC50 that approximates it; ≥ and ≤ were set here for values at or beyond the usual limits of such assays
HLA-B*35:01 = test: as above
HLA-B*18:01 = test: as above
HLA-B*40:01 = test: as above
HLA-B*44:02 = test: as above
HLA-B*45:01 = test: as above
HLA-B*40:02 = test: as above
HLA-B*44:03 = test: as above
HLA-A*01:01 = test: as above
HLA-B*15:01 = test: as above
HLA-A*30:02 = test: as above
HLA-B*58:01 = test: IEDB peptide-MHC binding, purified MHC/direct/fluorescence; filed as Kd, often an IC50 or EC50 that approximates it; ≥ and ≤ were set here for values at or beyond the usual limits of such assays; conditions: source organism: Entamoeba histolytica HM-1:IMSS
HLA-B*57:01 = test: as above; conditions: source organism: Entamoeba histolytica HM-1:IMSS
HLA-A*68:02 = test: IEDB peptide-MHC binding, purified MHC/competitive/radioactivity; filed as Kd, often an IC50 or EC50 that approximates it; ≥ and ≤ were set here for values at or beyond the usual limits of such assays; conditions: source organism: Dengue virus 1 Brazil/97-11/1997
HLA-B*51:01 [2] = test: as above; conditions: source organism: Dengue virus 1 Brazil/97-11/1997
HLA-B*53:01 = test: as above; conditions: source organism: Dengue virus 1 Brazil/97-11/1997
HLA-A*24:02 = test: IEDB peptide-MHC binding, purified MHC/competitive/fluorescence; ≥ and ≤ were set here for values at or beyond the usual limits of such assays; conditions: source organism: Vaccinia virus
HLA-A*02:01 = test: as above; conditions: source organism: Vaccinia virus
HLA-A*11:01 = test: as above; conditions: source organism: Vaccinia virus
[3] = source organism: Dengue virus 2 Jamaica/1409/1983
[4] = source organism: Dengue virus 3 China/80-2/1980
[5] = source organism: Dengue virus 4 Philippines/H241/1956
[6] = source organism: Mammarenavirus guanaritoense
[7] = source organism: Mammarenavirus brazilense
[8] = source organism: Lymphocytic choriomeningitis virus (strain Armstrong)
[9] = source organism: SARS coronavirus Tor2
[10] = source organism: Mammarenavirus lassaense
[11] = source organism: Dengue virus 1 Brazil/97-11/1997

RLLHRTTRK
Kd (HLA-A*03:01; source organism: Yersinia pestis Nepal516): 13.3 nM

RPAVGGKTV
Kd (HLA-B*51:01 [1]): ≥ 20000 nM

RPGYHTQTAG
Kd (HLA-B*07:02; [3]): 2.1 nM

RPINEKEENM
Kd (HLA-B*35:01; [4]): 1830 nM
Kd (HLA-B*07:02; [4]): 222 nM

RPLSEKEENM
Kd (HLA-B*35:01; [5]): ≥ 30100 nM
Kd (HLA-B*07:02; [5]): 2030 nM

RVYAHDAQH
Kd (HLA-A*03:01; source organism: Pixuna virus): 30.5 nM

SEDGLDGFDW
Kd (HLA-B*18:01; [6]): ≥ 35300 nM
Kd (HLA-B*40:01; [6]): 14600 nM
Kd (HLA-B*44:02; [6]): 21.3 nM
Kd (HLA-B*45:01; [6]): ≥ 56700 nM
Kd (HLA-B*40:02; [6]): 14400 nM
Kd (HLA-B*44:03; [6]): 21.2 nM

SEIQLQRLC
Kd (HLA-B*18:01; [7]): 10500 nM
Kd (HLA-B*40:01; [7]): 1770 nM
Kd (HLA-B*44:02; [7]): 285 nM
Kd (HLA-B*45:01; [7]): 990 nM
Kd (HLA-B*40:02; [7]): 68.5 nM
Kd (HLA-B*44:03; [7]): 327 nM

SEISVILQEL
Kd (HLA-B*18:01; [8]): 10300 nM
Kd (HLA-B*40:01; [8]): 868 nM
Kd (HLA-B*44:02; [8]): 106 nM
Kd (HLA-B*45:01; [8]): 4170 nM
Kd (HLA-B*40:02; [8]): 544 nM
Kd (HLA-B*44:03; [8]): 240 nM

SELAKGVAL
Kd (HLA-B*18:01; [9]): 1110 nM
Kd (HLA-B*40:01; [9]): 3.35 nM
Kd (HLA-B*44:02; [9]): 132 nM
Kd (HLA-B*45:01; [9]): 401 nM
Kd (HLA-B*40:02; [9]): 14.1 nM
Kd (HLA-B*44:03; [9]): 175 nM

SESDLEFSW
Kd (HLA-B*18:01; [10]): 277 nM
Kd (HLA-B*40:01; [10]): 14900 nM
Kd (HLA-B*44:02; [10]): 9.02 nM
Kd (HLA-B*45:01; [10]): 1650 nM
Kd (HLA-B*40:02; [10]): 414 nM
Kd (HLA-B*44:03; [10]): 7.4 nM

SMANIFRGSY
Kd (HLA-A*01:01; [3]): 3250 nM
Kd (HLA-B*15:01; [3]): 0.27 nM
Kd (HLA-A*30:02; [3]): 8.95 nM

SQHNYRPGYF
Kd (HLA-B*15:01; [11]): 9.37 nM

SQKTTWLPVL
Kd (HLA-B*15:01; [11]): 91.5 nM

STLPETTVVRR
Kd (HLA-B*07:02; source organism: Hepatitis B virus subtype adw2): ≥ 35000 nM

TAYEKLWYI
Kd (HLA-B*58:01): 130 nM
Kd (HLA-B*57:01): 650 nM

TENLVIEGPT
Kd (HLA-B*18:01; [9]): ≥ 56400 nM
Kd (HLA-B*40:01; [9]): ≥ 42900 nM
Kd (HLA-B*44:02; [9]): 14000 nM
Kd (HLA-B*45:01; [9]): 1830 nM
Kd (HLA-B*40:02; [9]): 721 nM
Kd (HLA-B*44:03; [9]): ≥ 29100 nM

TPPGSRDPF
Kd (HLA-B*35:01; [3]): 160 nM
Kd (HLA-B*07:02; [3]): 9880 nM

TSVGKLVHQV
Kd (HLA-A*68:02): 37.1 nM

VEAVMYMGTL
Kd (HLA-B*18:01; [9]): 7240 nM
Kd (HLA-B*40:01; [9]): 22.2 nM
Kd (HLA-B*44:02; [9]): 1540 nM
Kd (HLA-B*45:01; [9]): 508 nM
Kd (HLA-B*40:02; [9]): 33.8 nM
Kd (HLA-B*44:03; [9]): 516 nM

VLMMLVAPSY
Kd (HLA-A*01:01; [5]): 1000 nM
Kd (HLA-B*15:01; [5]): 10.1 nM
Kd (HLA-A*30:02; [5]): 26.6 nM

VNIKYNPHI
Kd (HLA-B*15:01; source organism: Vaccinia virus WR): 141 nM

VPSIKSGNDI
Kd (HLA-B*07:02; [11]): 1370 nM
Kd (HLA-B*51:01 [2]): ≥ 22000 nM
Kd (HLA-B*53:01): ≥ 47600 nM

VSYNDYFNV
IC50 (HLA-A*24:02): ≥ 77100 nM
IC50 (HLA-A*02:01): 743 nM
IC50 (HLA-A*11:01): 14300 nM

WLSLLVPFV
Kd (HLA-B*07:02; source organism: Hepatitis B virus): ≥ 35000 nM

YKTLCDMIK
IC50 (HLA-A*11:01): ≥ 230000 nM

YKVASAGISY
Kd (HLA-B*35:01; [5]): 70.4 nM
Kd (HLA-B*15:01; [5]): 2.96 nM
